Measured values: patent publication US20170267764A1 (INNATE PHARMA, published 2017)

T1: human MICA allele MICA*001 (human, UniProt Q29983 24-297)
T1 construct: Expressed on transfected C1R cells; also called MICA*01; C1R-MICA*001
T1 sequence: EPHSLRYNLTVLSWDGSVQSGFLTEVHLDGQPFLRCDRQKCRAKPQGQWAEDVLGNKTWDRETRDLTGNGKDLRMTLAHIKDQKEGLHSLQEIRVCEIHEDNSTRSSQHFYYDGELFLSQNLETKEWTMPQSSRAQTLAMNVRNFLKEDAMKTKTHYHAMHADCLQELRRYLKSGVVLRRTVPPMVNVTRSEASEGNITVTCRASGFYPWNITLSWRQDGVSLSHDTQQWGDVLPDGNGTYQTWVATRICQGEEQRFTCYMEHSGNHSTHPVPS

T2: human MICA allele MICA*004 (human, UniProt Q29983 24-297)
T2 construct: Expressed on transfected C1R cells; also called MICA*04; C1R-MICA*004
T2 chain: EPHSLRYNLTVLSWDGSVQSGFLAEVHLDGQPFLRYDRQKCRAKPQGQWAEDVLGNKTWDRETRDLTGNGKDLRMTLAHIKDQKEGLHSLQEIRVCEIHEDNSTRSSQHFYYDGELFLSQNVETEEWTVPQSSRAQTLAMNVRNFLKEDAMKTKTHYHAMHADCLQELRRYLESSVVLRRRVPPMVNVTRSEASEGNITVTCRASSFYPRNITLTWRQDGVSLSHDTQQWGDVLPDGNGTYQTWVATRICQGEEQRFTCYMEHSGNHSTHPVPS

T3: human MICA allele MICA*007 (human, UniProt Q29983 24-297)
T3 construct: Expressed on transfected C1R cells; also called MICA*07; C1R-MICA*007
T3 chain: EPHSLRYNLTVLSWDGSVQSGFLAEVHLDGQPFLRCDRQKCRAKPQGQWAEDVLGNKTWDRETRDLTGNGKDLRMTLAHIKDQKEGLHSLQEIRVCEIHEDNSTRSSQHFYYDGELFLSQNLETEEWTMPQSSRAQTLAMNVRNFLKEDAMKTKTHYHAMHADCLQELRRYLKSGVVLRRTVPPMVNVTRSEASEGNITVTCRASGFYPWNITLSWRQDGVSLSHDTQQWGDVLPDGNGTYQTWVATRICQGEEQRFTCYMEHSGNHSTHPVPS

T4: human MICA allele MICA*008 (human, UniProt Q29983 24-297)
T4 construct: Expressed on transfected C1R cells; also called MICA*08; C1R-MICA*008
T4 chain: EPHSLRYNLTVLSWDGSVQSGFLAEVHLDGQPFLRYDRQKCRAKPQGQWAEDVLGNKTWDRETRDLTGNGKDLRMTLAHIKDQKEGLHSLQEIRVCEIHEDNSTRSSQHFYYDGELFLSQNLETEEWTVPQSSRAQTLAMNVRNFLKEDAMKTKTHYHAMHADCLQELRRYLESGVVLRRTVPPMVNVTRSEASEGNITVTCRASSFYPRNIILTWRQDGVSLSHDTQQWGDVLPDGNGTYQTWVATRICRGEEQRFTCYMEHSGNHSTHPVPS


How the values were obtained:
[1] = target: T1, human MICA allele MICA*001; assay: flow cytometry, C1R-MICA*001 transfectant cells
Experimental: (§1) The binding of the antibodies in Table 2 of Example 1 were tested for binding to MICA-expressing C1R transfectant cells (ATCC reference CRL-1993™) transfected with RSV.5neo vectors (GenBank (NCBI) under Accession number M83237), as described in Salih et al. (2003) Blood 102(4): […], referred to as C1R-MICA*001, C1R-MICA*004, C1R-MICA*007 and C1R-MICA*008. Binding was analyzed by flow cytometry.
(§2) Cells were harvested and stained in PBS 1×/BSA 0.2%/EDTA 2 mM buffer during 30 minutes at 4° C. using a dose-range of the anti-MICA mAbs. After two washes in staining buffer, cells were stained for 30 min at 4° C. with mouse anti-human IgG1-PE monoclonal antibodies (1/11). After two washes, stainings were acquired on a BD FACS Canto II and analyzed using the FlowJo software.

[2] = target: T2, human MICA allele MICA*004; assay: flow cytometry, C1R-MICA*004 transfectant cells
Experimental: as §1, §2

[3] = target: T3, human MICA allele MICA*007; assay: flow cytometry, C1R-MICA*007 transfectant cells
Experimental: as §1, §2

[4] = target: T4, human MICA allele MICA*008; assay: flow cytometry, C1R-MICA*008 transfectant cells
Experimental: as §1, §2

[5] = target: T1, human MICA allele MICA*001; assay: flow cytometry, C1R-MICA*001 transfectant cells; reference: parental antibody
Experimental: as §1, §2

[6] = target: T1, human MICA allele MICA*001; assay: cell-based or functional assay
[7] = target: T4, human MICA allele MICA*008; assay: cell-based or functional assay

Binder	EC50 [1]	EC50 [2]	EC50 [3]	EC50 [4]	fold improvement in affinity compared to the parental antibody [5]	EC50 (read off the curve), ADCC % specific lysis [panel C1R MICA*001] [6]	EC50 (read off the curve), ADCC % specific lysis [panel C1R MICA*008] [7]
mAb4 (antibody, V domains shown, Produced in CHO cells as human IgG1 with huCk constant domain) VH: QVQLQESGPGLVKPSETLSLTCTVSGYSITSDYAWNWIRQPPGKGLEWMGFVSYSGTTKYNPSLKSRVTISRDTSKNQFSLKLSSVTAADTAVYYCARGYGFDYWGQGTTVTVSS VL: EIVLTQSPATLSLSPGERATLSCSATSSISSIYFHWYQQKPGQAPRLLIYRTSNLASGIPARFSGSGSGTDYTLTISSLEPEDFAVYYCQQGTTIPFTFGQGTKLEIK	0.316 mg/L	0.063 mg/L	0.0875 mg/L	0.0859 mg/L			
mAb8 (antibody, V domains shown, Produced in CHO cells as human IgG1 with huCk constant domain) VH: QVQLQESGPGLVKPSETLSLTCTVSGYSITSDYAWNWIRQPPGKGLEWMGFVSYSGTTKYNPSLKSRVTISRDTSENQFSLKLSSVTAADTAVYYCARGYGFDYWGQGTTVTVSS VL: EIVLTQSPATLSLSPGERATLSCSATSSISSIYFHWYQQKPGQAPRLLIYRTSNLASGIPARFSGSGSGTSYTLTISSLEPEDFAVYYCQQGTTIPFTFGQGTKLEIK	0.191 mg/L	0.0481 mg/L	0.0462 mg/L	0.0551 mg/L			
mAb9 (antibody, V domains shown, Produced in CHO cells as human IgG1 with huCk constant domain) VH: QVQLQESGPGLVKPSETLSLTCTVSGYSITSDYAWNWIRQPPGKGLEWMGFVSYSGTTKYNPSLKSRVTISRDTSENQFSLKLSSVTAADTAVYYCARGYGFDYWGQGTTVTVSS VL: EIVLTQSPATLSLSPGERATLSCSATSSISSIYFHWYQQKPGQAPRLLIYRTSNLASGIPARFSGSGSGTDYTLTISSLEPEDVAVYYCQQGTTIPFTFGQGTKLEIK	0.318 mg/L	0.0438 mg/L	0.0519 mg/L	0.0515 mg/L			
mAb7 (antibody, V domains shown, Produced in CHO cells as human IgG1 with huCk constant domain) VH: QVQLQESGPGLVKPSETLSLTCTVSGYSITSDYAWNWIRQPPGKGLEWMGFVSYSGTTKYNPSLKSRVTISRDTSENQFSLKLSSVTAADTAVYYCARGYGFDYWGQGTTVTVSS VL: EIVLTQSPATLSLSPGERATLSCSATSSISSIYFHWYQQKPGQAPRLLIYRTSNLASGIPARFSGSGSGTDYTLTISSLEPEDFAVYYCQQGTTIPFTFGQGTKLEIK	0.288 mg/L	0.0616 mg/L	0.0668 mg/L	0.0871 mg/L			
mAb6 (antibody, V domains shown, Produced in CHO cells as human IgG1 with huCk constant domain) VH: QVQLQESGPGLVKPSETLSLTCTVSGYSITSDYAWNWIRQPPGKGLEWMGFVSYSGTTKYNPSLKSRVTISRDTSKNQFSLKLSSVTAADTAVYYCARGYGFDYWGQGTTVTVSS VL: EIVLTQSPATLSLSPGERATLSCSATSSISSIYFHWYQQKPGQAPRLLIYRTSNLASGIPARFSGSGSGTDYTLTISSLEPEDVAVYYCQQGTTIPFTFGQGTKLEIK	0.407 mg/L	0.0838 mg/L	0.0718 mg/L	0.0953 mg/L			
mAb2 (antibody, V domains shown, Produced in CHO cells as human IgG1 with huCk constant domain) VH: QVQLQESGPGLVKPSETLSLTCTVSGYSITSDYAWNWIRQPPGKGLEWIGFVSYSGTTKYNPSLKSRVTISRDTSKNQFSLKLSSVTAADTAVYYCARGYGFDYWGQGTTVTVSS VL: EIVLTQSPATLSLSPGERATLSCSATSSISSIYFHWYQQKPGQAPRLLIYRTSNLASGIPARFSGSGSGTSYTLTISSLEPEDFAVYYCQQGTTIPFTFGQGTKLEIK	0.151 mg/L	0.0381 mg/L	0.0502 mg/L	0.0699 mg/L	~3 fold		
mAb3 (antibody, V domains shown, Produced in CHO cells as human IgG1 with huCk constant domain) VH: QVQLQESGPGLVKPSETLSLTCTVSGYSITSDYAWNWIRQPPGKGLEWIGFVSYSGTTKYNPSLKSRVTISRDTSKNQFSLKLSSVTAADTAVYYCARGYGFDYWGQGTTVTVSS VL: EIVLTQSPATLSLSPGERATLSCSATSSISSIYFHWYQQKPGQAPRLLIYRTSNLASGIPARFSGSGSGTDYTLTISSLEPEDVAVYYCQQGTTIPFTFGQGTKLEIK	0.265 mg/L	0.0608 mg/L	0.0612 mg/L	0.0822 mg/L			
mAb1 (antibody, V domains shown, Produced in CHO cells as human IgG1 with huCk constant domain; also called anti-MICA mAb1; anti-MICA antibody mAb1) VH: QVQLQESGPGLVKPSETLSLTCTVSGYSITSDYAWNWIRQPPGKGLEWIGFVSYSGTTKYNPSLKSRVTISRDTSKNQFSLKLSSVTAADTAVYYCARGYGFDYWGQGTTVTVSS VL: EIVLTQSPATLSLSPGERATLSCSATSSISSIYFHWYQQKPGQAPRLLIYRTSNLASGIPARFSGSGSGTDYTLTISSLEPEDFAVYYCQQGTTIPFTFGQGTKLEIK	0.184 mg/L	0.0417 mg/L	0.033 mg/L	0.0612 mg/L	2.4 fold	~0.003 mg/L	~0.0002 mg/L

More lines, now with the values ahead:

EC50 [1]	EC50 [2]	EC50 [3]	EC50 [4]	fold improvement in affinity compared to the parental antibody [5]	EC50 (read off the curve), ADCC % specific lysis [panel C1R MICA*001] [6]	EC50 (read off the curve), ADCC % specific lysis [panel C1R MICA*008] [7]	Binder
0.32 mg/L	0.0614 mg/L	0.0513 mg/L	0.0789 mg/L				mAb11 (antibody, V domains shown, Produced in CHO cells as human IgG1 with huCk constant domain) VH: QVQLQESGPGLVKPSETLSLTCTVSGYSITSDYAWNWIRQPPGKGLEWMGFVSYSGTTKYNPSLKSRITISRDTSENQFSLKLSSVTAADTAVYYCARGYGFDYWGQGTTVTVSS VL: EIVLTQSPATLSLSPGERATLSCSATSSISSIYFHWYQQKPGQAPRLLIYRTSNLASGIPARFSGSGSGTSYTLTISSLEPEDFAVYYCQQGTTIPFTFGQGTKLEIK
0.318 mg/L	0.0762 mg/L	0.0493 mg/L	0.0958 mg/L				mAb5 (antibody, V domains shown, Produced in CHO cells as human IgG1 with huCk constant domain) VH: QVQLQESGPGLVKPSETLSLTCTVSGYSITSDYAWNWIRQPPGKGLEWMGFVSYSGTTKYNPSLKSRVTISRDTSKNQFSLKLSSVTAADTAVYYCARGYGFDYWGQGTTVTVSS VL: EIVLTQSPATLSLSPGERATLSCSATSSISSIYFHWYQQKPGQAPRLLIYRTSNLASGIPARFSGSGSGTSYTLTISSLEPEDFAVYYCQQGTTIPFTFGQGTKLEIK
0.453 mg/L	0.0672 mg/L	0.086 mg/L	0.0642 mg/L				mAb12 (antibody, V domains shown, Produced in CHO cells as human IgG1 with huCk constant domain) VH: QVQLQESGPGLVKPSETLSLTCTVSGYSITSDYAWNWIRQPPGKGLEWMGFVSYSGTTKYNPSLKSRITISRDTSENQFSLKLSSVTAADTAVYYCARGYGFDYWGQGTTVTVSS VL: EIVLTQSPATLSLSPGERATLSCSATSSISSIYFHWYQQKPGQAPRLLIYRTSNLASGIPARFSGSGSGTDYTLTISSLEPEDVAVYYCQQGTTIPFTFGQGTKLEIK
0.307 mg/L	0.0631 mg/L	0.0498 mg/L	0.144 mg/L				mAb10 (antibody, V domains shown, Produced in CHO cells as human IgG1 with huCk constant domain) VH: QVQLQESGPGLVKPSETLSLTCTVSGYSITSDYAWNWIRQPPGKGLEWMGFVSYSGTTKYNPSLKSRITISRDTSENQFSLKLSSVTAADTAVYYCARGYGFDYWGQGTTVTVSS VL: EIVLTQSPATLSLSPGERATLSCSATSSISSIYFHWYQQKPGQAPRLLIYRTSNLASGIPARFSGSGSGTDYTLTISSLEPEDFAVYYCQQGTTIPFTFGQGTKLEIK
